From patent publication US20170306033A1 (Amgen, published 2017)

T1: human PAC1 receptor (human, UniProt P41586 21-468)
T1 sequence: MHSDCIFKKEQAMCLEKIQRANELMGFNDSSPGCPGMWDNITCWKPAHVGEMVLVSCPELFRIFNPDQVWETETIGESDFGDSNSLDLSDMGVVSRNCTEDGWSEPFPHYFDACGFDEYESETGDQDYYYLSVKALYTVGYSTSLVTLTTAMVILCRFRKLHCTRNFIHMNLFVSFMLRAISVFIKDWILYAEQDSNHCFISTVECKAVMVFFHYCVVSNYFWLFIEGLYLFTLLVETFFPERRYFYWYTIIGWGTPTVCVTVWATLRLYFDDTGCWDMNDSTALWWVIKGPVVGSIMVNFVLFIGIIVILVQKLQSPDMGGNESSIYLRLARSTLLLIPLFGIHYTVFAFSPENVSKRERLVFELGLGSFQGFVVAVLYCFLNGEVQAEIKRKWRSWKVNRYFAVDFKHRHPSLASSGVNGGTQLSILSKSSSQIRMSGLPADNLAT


How the values were obtained:
human CGRP receptor = human CGRP receptor (human, UniProt Q16602 23-461; O60894 27-148); assay: cell-based or functional assay
human CGRP receptor, sequence (Q16602 23-461 limits assumed, chain 1 of 2): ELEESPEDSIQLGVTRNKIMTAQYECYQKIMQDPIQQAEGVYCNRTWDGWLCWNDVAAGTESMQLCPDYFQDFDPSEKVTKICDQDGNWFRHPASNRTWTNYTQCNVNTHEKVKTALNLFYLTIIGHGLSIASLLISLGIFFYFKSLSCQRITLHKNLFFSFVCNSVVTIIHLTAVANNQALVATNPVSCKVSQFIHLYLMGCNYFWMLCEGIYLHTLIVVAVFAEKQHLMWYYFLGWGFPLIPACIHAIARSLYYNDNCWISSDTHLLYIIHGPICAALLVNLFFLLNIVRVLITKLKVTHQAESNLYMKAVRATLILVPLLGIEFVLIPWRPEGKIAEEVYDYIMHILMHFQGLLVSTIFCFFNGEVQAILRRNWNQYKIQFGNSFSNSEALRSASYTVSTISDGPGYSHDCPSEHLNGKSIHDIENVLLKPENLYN
human CGRP receptor, sequence (O60894 27-148 limits assumed, chain 2 of 2): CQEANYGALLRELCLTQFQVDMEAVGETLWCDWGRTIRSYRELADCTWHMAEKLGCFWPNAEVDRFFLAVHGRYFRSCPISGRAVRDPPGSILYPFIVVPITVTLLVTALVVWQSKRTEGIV

human PAC1 receptor = biological target: T1, human PAC1 receptor; assay: cell-based or functional assay

Binder | Human CGRP Receptor IC50 (human CGRP receptor) [nM] | Human PAC1 Receptor IC50 (human PAC1 receptor) [nM]
iPS:392530 (bispecific antibody, human IgG1, kappa, lambda, N297G) light: QSVLTQPPSVSAAPGQKVTISCSGSSSNIGNNYVSWYQKLPGTAPKLLIYDNNKRPSGIPDRFSGSKSGTSTTLGITGLQTGDEADYYCGTWDSRLSAVVFGGGTKLTVLGQPKANPTVTLFPPSSEELQANKATLVCLISDFYPGAVTVAWKADGSPVKAGVETTKPSKQSNNKYAAKSYLSLTPEQWKSHRSYSCQVTHEGSTVEKTVAPTECS heavy: not shown QVQLVESGAEVVKPGASVKVSCKASGFTFSRFAMHWVRQAPGQGLEWMGVISYDGGNKYYAESVKGRVTMTRDTSTSTLYMELSSLRSEDTAVYYCARGYDVLTGYPDYWGQGTLVTVSSASTKGPSVFPLAPSSKSTSGGTAALGCLVKDYFPEPVTVSWNSGALTSGVHTFPAVLQSSGLYSLKSVVTVPSSSLGTQTYICNVNHKPSNTKVDKKV | 0.38 | > 1000
iPS:392531 (bispecific antibody, human IgG1, kappa, lambda, N297G) light: QSVLTQPPSVSAAPGQKVTISCSGSSSNIGNNYVSWYQKLPGTAPKLLIYDNNKRPSGIPDRFSGSKSGTSTTLGITGLQTGDEADYYCGTWDSRLSAVVFGGGTKLTVLGQPKANPTVTLFPPSSEELQANKATLVCLISDFYPGAVTVAWKADGSPVKAGVETTKPSKQSNNKYAAKSYLSLTPEQWKSHRSYSCQVTHEGSTVEKTVAPTECS heavy: not shown QVQLVESGAEVVKPGASVKVSCKASGFTFSRFAMHWVRKAPGQGLEWMGVISYDGGNKYYAESVKGRVTMTRDTSTSTLYMELSSLRSEDTAVYYCARGYDVLTGYPDYWGQGTLVTVSSASTKGPSVFPLAPSSKSTSGGTAALGCLVKDYFPEPVTVSWNSGALTSGVHTFPAVLQSSGLYSLKSVVTVPSSSLGTQTYICNVNHKPSNTKVDKKV | 0.42 | > 1000
iPS:392532 (bispecific antibody, human IgG1, kappa, lambda, N297G) light: QSVLTQPPSVSAAPGQKVTISCSGSSSNIGNNYVSWYQQLPGTAPKLLIYDNNKRPSGIPDRFSGSKSGTSTTLGITGLQTGDEADYYCGTWDSRLSAVVFGGGTKLTVLGQPKANPTVTLFPPSSEELQANKATLVCLISDFYPGAVTVAWKADGSPVKAGVETTKPSKQSNNKYAAKSYLSLTPEQWKSHRSYSCQVTHEGSTVEKTVAPTECS heavy: not shown QVQLVESGAEVVKPGASVKVSCKASGFTFSRFAMHWVRQAPGQGLEWMGVISYDGGNKYYAESVKGRVTMTRDTSTSTLYMELSSLRSEDTAVYYCARGYDVLTGYPDYWGQGTLVTVSSASTKGPSVFPLAPSSKSTSGGTAALGCLVKDYFPEPVTVSWNSGALTSGVHTFPAVLQSSGLYSLKSVVTVPSSSLGTQTYICNVNHKPSNTKVDKKV | 0.51 | 352
iPS:392533 (bispecific antibody, human IgG1, kappa, lambda, N297G) light: QSVLTQPPSVSAAPGQKVTISCSGSSSNIGNNYVSWYQQLPGTAPKLLIYDNNKRPSGIPDRFSGSKSGTSTTLGITGLQTGDEADYYCGTWDSRLSAVVFGGGTKLTVLGQPKANPTVTLFPPSSEELQANKATLVCLISDFYPGAVTVAWKADGSPVKAGVETTKPSKQSNNKYAAKSYLSLTPEQWKSHRSYSCQVTHEGSTVEKTVAPTECS heavy: not shown QVQLVESGAEVVKPGASVKVSCKASGFTFSRFAMHWVRKAPGQGLEWMGVISYDGGNKYYAESVKGRVTMTRDTSTSTLYMELSSLRSEDTAVYYCARGYDVLTGYPDYWGQGTLVTVSSASTKGPSVFPLAPSSKSTSGGTAALGCLVKDYFPEPVTVSWNSGALTSGVHTFPAVLQSSGLYSLKSVVTVPSSSLGTQTYICNVNHKPSNTKVDKKV | 0.59 | 206

The next lines start with the values.

Human CGRP Receptor IC50 (human CGRP receptor) [nM] | Human PAC1 Receptor IC50 (human PAC1 receptor) [nM] | Binder
0.37 | 349 | iPS:392534 (bispecific antibody, human IgG1, kappa, lambda, N297G) light: QSVLTQPPSVSAAPGQKVTISCSGSSSNIGNNYVSWYQKLPGTAPKLLIYDNNKRPSGIPDRFSGSKSGTSTTLGITGLQTGDEADYYCGTWDSRLSAVVFGGGTKLTVLGQPKANPTVTLFPPSSEELQANKATLVCLISDFYPGAVTVAWKADGSPVKAGVETTKPSKQSNNKYAAKSYLSLTPEQWKSHRSYSCQVTHEGSTVEKTVAPTECS heavy: not shown QVQLVESGAEVVKPGASVKVSCKASGFTFSRFAMHWVRQAPGQGLEWMGVISYDGGNKYYAESVKGRVTMTRDTSTSTLYMELSSLRSEDTAVYYCARGYDVLTGYPDYWGQGTLVTVSSASTKGPSVFPLAPSSKSTSGGTAALGCLVKDYFPEPVTVSWNSGALTSGVHTFPAVLQSSGLYSLKSVVTVPSSSLGTQTYICNVNHKPSNTKVDKKV
0.41 | 365 | iPS:392535 (bispecific antibody, human IgG1, kappa, lambda, N297G) light: QSVLTQPPSVSAAPGQKVTISCSGSSSNIGNNYVSWYQKLPGTAPKLLIYDNNKRPSGIPDRFSGSKSGTSTTLGITGLQTGDEADYYCGTWDSRLSAVVFGGGTKLTVLGQPKANPTVTLFPPSSEELQANKATLVCLISDFYPGAVTVAWKADGSPVKAGVETTKPSKQSNNKYAAKSYLSLTPEQWKSHRSYSCQVTHEGSTVEKTVAPTECS heavy: not shown QVQLVESGAEVVKPGASVKVSCKASGFTFSRFAMHWVRKAPGQGLEWMGVISYDGGNKYYAESVKGRVTMTRDTSTSTLYMELSSLRSEDTAVYYCARGYDVLTGYPDYWGQGTLVTVSSASTKGPSVFPLAPSSKSTSGGTAALGCLVKDYFPEPVTVSWNSGALTSGVHTFPAVLQSSGLYSLKSVVTVPSSSLGTQTYICNVNHKPSNTKVDKKV
